The results in this text go back to patent US20210101947A1 (UNIVERSITY OF SASKATCHEWAN, published 2021).

Primed or numbered codes have the meaning given here. No end group written: not given here. FITC′ = not defined here

The assay deals with T1, TAT2 cell penetrating peptide.
T1 construct: Synthesized; two copies of a 9 amino acid TAT peptide
T1 peptide: RKKRRQRRRRKKRRQRRR
As to the kind of experiment: peptides mixed; uptake into MDA-MB-231 cells seen by fluorescence microscopy. The procedure: B. Using 0.1 mg/ml C43-4-FITC, weak toxicity is only observed when combined with TAT2, which is worsened with DOX. An equal number of cells were treated with TAT2 and C43-4-FITC alone or in complex, +/−0.5 uM DOX. 24 hours later, 4 random fields of cells were counted and combined. C. MDA-MB-231 cells were treated with 0.001 mg/ml peptide/TAT2 complex for 12 hours, or left untreated. Lysates were prepared and assessed with the antibodies shown. Cyclin B—APC substrate; the PARP […] cleavage fragment is an early sign of apoptosis; induction of total PARP indicates DNA damage; TFPI1 is a nucleolar MDR marker. D. Mice growing MDA-MB-231 cells stably expressing pcDNA-C43-4, injected or left untreated, with the C43-4-FITC/TAT2 complex (n=2 each). 100 ul of 0.01 mg/ml C43-4-FITC peptide was mixed with 25 ul of 1 mg/ml TAT2. The entire 125 ul was given to the mouse using an intraperitoneal (IP) injection. 1 injection/mouse was given in this experiment.
The 20 amino acid C43-4 peptide was synthesized with a C-terminal FITC epitope to allow visualization of the peptide within the cell using fluorescent microscopy. The TAT2 cell penetrating peptide, encoding 2 copies of a 9 amino acid peptide ([…]; SEQ ID NO: 26) was also synthesized. […] After 24 hours, and prior to imaging, 4 independent microscope fields were counted for each sample and added together to get a total cell number. […]

B1: C43-4-FITC (peptide)
peptide: NGSSHNDLRVRRLTLISRLC-{FITC′}
notes: The synthesized 20 amino acid C43-4 peptide with a C-terminal FITC; also called C43-4-FITC peptide
As for B1, the binding result was “binds”.
